Reference: article PMC12065894 (Nature Communications, 2025)

Target: the molecule itself
Assay: crystal structure; contact between molecules of the crystal lattice: the cleaved zymogen activation motif of one protease molecule lies in the substrate binding cleft of a neighbouring one; crystals grown at 18 °C

B1: dasTMPRSS11D (active, autocleaved TMPRSS11D with DDDDK zymogen activation motif) (enzyme)
chain 1: ANWLINECGAGPDLITDDDDK
chain 2: not shown
notes: also called active dasTMPRSS11D; Human Airway Trypsin-like protease
  binding result: binds
